Data published in patent publication US20070286806A1, “Methods and Compositions for Modulating a Steroid Receptor” (Mount Sinai Hospital, priority 2004, published 2007).

What was measured:
[1] = target: myometrial progesterone receptors; settings: cited from earlier work
[2] = target: T1, PR DNA binding domain / PRE (Homo sapiens, UniProt P06401); assay: Electrophoretic Mobility Shift Assay of PR binding to PRE; settings: nuclear extract of 293T cells transfected with Flag-PRB, increasing doses
T1 construct: PR 556-650 was also inserted downstream of T7 promoter of pcDNA3; made in house; host or cells: rabbit reticulocyte lysate (TNT, Promega); GST-PSF from E. coli
T1 sequence (P06401 1-933): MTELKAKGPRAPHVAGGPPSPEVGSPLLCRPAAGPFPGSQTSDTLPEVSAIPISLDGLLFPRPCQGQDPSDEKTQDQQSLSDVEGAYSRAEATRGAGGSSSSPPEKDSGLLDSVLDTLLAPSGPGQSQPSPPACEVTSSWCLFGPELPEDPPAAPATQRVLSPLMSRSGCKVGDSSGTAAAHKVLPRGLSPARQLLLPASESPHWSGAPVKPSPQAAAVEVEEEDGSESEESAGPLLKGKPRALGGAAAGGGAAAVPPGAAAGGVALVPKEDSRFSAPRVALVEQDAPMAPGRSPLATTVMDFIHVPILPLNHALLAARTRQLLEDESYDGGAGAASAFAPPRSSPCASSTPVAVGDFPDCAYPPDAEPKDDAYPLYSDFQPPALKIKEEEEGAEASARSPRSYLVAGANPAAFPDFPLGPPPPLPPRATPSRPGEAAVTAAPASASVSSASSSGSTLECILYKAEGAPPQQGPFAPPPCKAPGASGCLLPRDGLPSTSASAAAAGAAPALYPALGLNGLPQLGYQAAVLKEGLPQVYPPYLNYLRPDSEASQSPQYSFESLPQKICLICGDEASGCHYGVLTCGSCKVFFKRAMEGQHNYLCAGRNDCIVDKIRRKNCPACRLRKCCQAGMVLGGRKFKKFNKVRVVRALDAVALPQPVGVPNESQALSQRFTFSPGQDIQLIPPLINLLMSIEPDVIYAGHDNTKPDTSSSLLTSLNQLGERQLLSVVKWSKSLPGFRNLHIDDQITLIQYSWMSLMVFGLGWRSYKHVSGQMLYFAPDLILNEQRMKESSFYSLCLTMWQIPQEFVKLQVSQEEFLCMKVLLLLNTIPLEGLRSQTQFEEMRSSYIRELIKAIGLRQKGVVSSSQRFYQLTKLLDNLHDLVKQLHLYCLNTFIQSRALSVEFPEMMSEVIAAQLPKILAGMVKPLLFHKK
Description: (§1) FIG. 8. PSF interferes with binding of PR DNA binding domain to PRE. (A) Electrophoretic mobility shift assay was performed with ^32P-labeled PRE incubated with in vitro translated PRDBD (1, 2, 5μl in lane 3 to 5 and 2 μl in lane 6 to 11) and increasing amount of bacterially expressed GST (lane 6 to 8) or GST PSF (lane 9 to 11). TNT lysate (lane 2) was used as negative control. (B) PR-Nuclear extraction (1 and 2 μg) as described in the method was incubated with PRE oligo in a dose dependent manner (lane 2 and 3). Anti-PR antiserum (AB-52) was added to the incubation mixture (lane 4). Addition of increasing dose (1 and 2 μl) of GST or GST-PSF in the same reaction as lane 3 was shown in lane 6, 7 and 9, 10. In the control experiments (lane 5 and 8), GST or GST-PSF was incubated with PRE without adding PR-nuclear extract. All reactions contain 10 nM progesterone.
(§2) For immunoprecipitation of the endogenous PR and PSF, T47D cells cultured in 150 mm dishes were lysed in 800 μl NETN buffer containing 150 mM NaCl plus protease inhibitor cocktail. […] Gels were treated with Enhancer (NEN, Boston, US) dried and analyzed by autoradiography. • Cell culture and transient transfection: SHM cells and 293T cells were maintained in DMEM plus 5% FCS (Sigma) as described before (22). […] Luciferase activity was determined by using the luciferin reagent (Promega) according to manufacture's protocol. […]

[3] = target: T2, PR DNA binding domain / PRE (Homo sapiens, UniProt P06401); assay: as above; settings: in vitro translated PRDBD, 32P-labeled PRE
T2 construct: PR 556-650 was also inserted downstream of T7 promoter of pcDNA3; made in house; host or cells: rabbit reticulocyte lysate (TNT, Promega); GST-PSF from E. coli
T2 sequence (P06401 556-650): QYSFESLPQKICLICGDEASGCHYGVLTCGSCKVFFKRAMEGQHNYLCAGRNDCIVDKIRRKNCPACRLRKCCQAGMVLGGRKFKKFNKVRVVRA
Description: as §1, §2

CC(=O)[C@H]1CC[C@H]2[C@@H]3CCC4=CC(=O)CC[C@]4(C)[C@H]3CC[C@]12C [progesterone]
Kd [1]: 1 nM

B1: GST-PSF: bacterially expressed GST-PSF fusion protein (protein)
chain: MSRDRFRSRGGGGGGFHRRGGGGGRGGLHDFRSPPPGMGLNQNRGPMGPGPGQSGPKPPIPPPPPHQQQQQPPPQQPPPQQPPPHQPPPHPQPHQQQQPPPPPQDSSKPVVAQGPGPAPGVGSAPPASSSAPPATPPTSGAPPGSGPGPTPTPPPAVTSAPPGAPPPTPPSSGVPTTPPQAGGPPPPPAAVPGPGPGPKQGPGPGGPKGGKMPGGPKPGGGPGLSTPGGHPKPPHRGGGEPRGGRQHHPPYHQQHHQGPPPGGPGGRSEEKISDSEGFKANLSLLRRPGEKTYTQRCRLFVGNLPADITEDEFKRLFAKYGEPGEVFINKGKGFGFIKLESRALAEIAKAELDDTPMRGRQLRVRFATHAAALSVRNLSPYVSNELLEEAFSQFGPIERAVVIVDDRGRSTGKGIVEFASKPAARKAFERCSEGVFLLTTTPRPVIVEPLEQLDDEDGLPEKLAQKNPMYQKERETPPRFAQHGTFEYEYSQRWKSLDEMEKQQREQVEKNMKDAKDKLESEMEDAYHEHQANLLRQDLMRRQEELRRMEELHNQEMQKRKEMQLRQEEERRRREEEMMIRQREMEEQMRRQREESYSRMGYMDPRERDMRMGGGGAMNMGDPYGSGGQKFPPLGGGGGIGYEANPGVPPATMSGSMMGSDMRTERFGQGGAGPVGGQGPRGMGPGTPAGYGRGREEYEGPNKKPRF
modifications: left off: a dimerising Fc or GST
notes: bacterially expressed GST-PSF fusion protein
association of full-length PR to PRE [2]: decrease of association of PR to PRE | association of PRDBD to PRE [3]: decreased association of PRDBD to PRE
